The results in this text go back to patent US20190092852A1 (Genentech, published 2019).

Substitutions are numbered along the chain they refer to. Several values for one entry are separate records, joined by “and”; a condition that tells them apart may be missing. Equal values may be shown once. A value given as a limit tells only on which side of the number the result lay.

To fix the notation:
T1: human IL-33 (Genentech, huIL33.his) (human, UniProt O95760 112-270)
T1 sequence (looked up): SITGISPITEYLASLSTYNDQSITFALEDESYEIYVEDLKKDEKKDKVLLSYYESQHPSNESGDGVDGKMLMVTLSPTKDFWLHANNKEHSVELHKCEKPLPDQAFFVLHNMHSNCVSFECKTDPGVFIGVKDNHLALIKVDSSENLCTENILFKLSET

T2: biotinylated cyno IL-33 (cynomolgus monkey, UniProt A0A2K5W3I1 112-269, biotin-labeled with EZ-LINK NHS-PEG4-Biotin)
T2 construct: also called biotin-cyIL-33
T2 sequence: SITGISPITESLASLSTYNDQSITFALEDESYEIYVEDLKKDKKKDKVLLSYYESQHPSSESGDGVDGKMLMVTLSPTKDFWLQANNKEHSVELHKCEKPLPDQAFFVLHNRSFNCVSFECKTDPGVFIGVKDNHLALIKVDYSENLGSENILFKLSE

T3: cyno IL-33 N-His (cynomolgus monkey)
T3 chain: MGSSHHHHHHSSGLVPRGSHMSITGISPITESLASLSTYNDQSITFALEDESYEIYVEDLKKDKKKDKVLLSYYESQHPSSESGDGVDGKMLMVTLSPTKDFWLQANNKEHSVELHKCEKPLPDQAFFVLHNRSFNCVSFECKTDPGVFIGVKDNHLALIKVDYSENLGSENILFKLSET

T4: cynomolgus monkey N-terminal 6-His-tagged and C-terminal Avi-tagged IL-33 (S112-T270) (cynomolgus monkey)
T4 chain: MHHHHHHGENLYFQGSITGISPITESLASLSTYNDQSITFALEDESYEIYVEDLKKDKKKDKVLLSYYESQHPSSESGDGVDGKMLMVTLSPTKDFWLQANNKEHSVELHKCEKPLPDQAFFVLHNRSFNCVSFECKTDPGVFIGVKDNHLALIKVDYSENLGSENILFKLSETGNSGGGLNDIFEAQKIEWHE

T5: cyno IL-33 (cell-based blocking assay of Example 2) (cynomolgus monkey, UniProt A0A2K5W3I1 95-269)
T5 sequence: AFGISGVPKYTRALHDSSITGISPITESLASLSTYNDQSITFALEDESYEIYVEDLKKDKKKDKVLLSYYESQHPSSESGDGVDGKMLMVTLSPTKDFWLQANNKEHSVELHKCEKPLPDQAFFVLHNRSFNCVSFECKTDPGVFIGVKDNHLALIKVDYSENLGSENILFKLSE

T6: human IL-33 (cell-based blocking assay of Example 2) (human, UniProt O95760 112-270)
T6 sequence (looked up): T1 sequence (looked up)

B1: 9F6.34.E10 (antibody, V domains shown)
VH: EVQLVQSGAEVKKPGASVKVSCKASGYTFTSYWINWVRQAPGQGLEWIGRIAPGSGFISYNELFKDRVTITRDTSTSTAYLELSSLRSEDTAVYYCAREFYYGSFYGGFAYWGQGTLVTVSS
VL: DIQMTQSPSSLSASVGDRVTITCHASQNIHVWLSWYQQKPGKAPKLLIYKASTLHTGVPSRFSGSGSGTDFTLTISSLQPEDFATYYCQQGQSSPLTFGQGTKVEIK
notes: Humanized variant of 9F6
B2: H4H9660P (antibody, V domains shown)
VH: EVQLVESGGGLVQPGGSLRLSCAASGITLSSYGMSWVRQAPGKGLEWVASIFGSGGGPYYADSVKGRFTMSRDNSKNTLYLQMNSLRAEDTAVYYCAKDRYSGSYYGGFDYWGRGTLVTVSS
VL: DIQMTQSPSSVSASVGDRVTITCRASQGITSWLAWYQQKPGKAPTLLIYAASSLQTGVPSRFSGSGSGTDFTLTISSLQPEHFATYYCQQANSFPPTFGGGTKVEIK
B3: H4H9671P (antibody, V domains shown)
VH: EVQLVESGGGLVQPGGSLRLSCAASGFTLRSYFMTWVRQVPGKGLEGVSAISGISGGTYYTDSVKGRFTISRDNSKNTLFLQMNSLRAEDTAVYFCARTVYSSSYYGGFQHWGQGTLVTVSS
VL: B2 VL with A13V, T30S, T45K, A50V, T56S, H82D, A91T, P96L
B4: H4H9663P (antibody, V domains shown)
VH: QVQLVQSGAEVKKPGASVKVSCKASGYTFTGHYMYWMRQAPGQGLEWMGWINPNSGGTNYAQKFQDRVTMTRDTSISTAYMELSRLRSDDTAVYYCARGRYGSSWYGGFEYWGQGTLVTVSS
VL: B2 VL with T45N, S52A, T56S, H82D, A84T, N92Y, F94L, P96L
B5: H4H9662P (antibody, V domains shown)
VH: EVQLVESGGGLVQPGGSLRLSCAASGFTFSSYALTWVRQAPGKGLEWVSFISGSGGRPFYADSVKGRFTISRDNSKNMLYLQMNSLRAEDTAIYYCAKSLYTTSWYGGFDSWGQGTLVTVSS
VL: B2 VL with I29V, T30V, T45K, T56S, H82D, A91S, P96F, F98L, G100P, E105D
B6: H4H9665P (antibody, V domains shown)
VH: EVQLVESGGGLVQPGGSLRLSCAASGFTFSNYAMTWVRQAPGKGLEWVSTISGSGDNTYYADSVQGRFTISRGHSKNTLYLQMNSLRAEDTAVYYCAKPTYSRSWYGAFDFWGQGTMVTVSS
VL: B2 VL with T30S, T45Q, S53R, T56S, S63W, H82D, S93N, P96F, G100P, E105D

The target in the first assay is T1, human IL-33 (Genentech, huIL33.his). Kind of assay: SPR Biacore. (In SPR one partner is held on a chip, and binding of the other changes the refractive index at the surface.)
What is called Kd is the equilibrium constant for the complex coming apart. Turning to B1, the Kd amounted to 0.795 nM.

For the next assay, the target named is T2, biotinylated cyno IL-33. Description: competitive ELISA, biotin-cyIL-33 to coated hST2-Fc. As to the method:
The ability of the anti-IL-33 antibody 10C12.38.H6.87Y.58I IgG4 and each anti-IL-33 antibody listed in Table 5 (RG1-RG20) to block either human IL-33 or cyno IL-33 binding to human ST2 receptor was tested in a competitive binding ELISA. Briefly, 1 μg/ml of recombinant human ST2-Fc chimera protein prepared in coating buffer (50 mM sodium carbonate, pH 9.6) was coated on a 384-well MAXISORP® plate (Nalgene Nunc International; Rochester, N.Y.) and incubated overnight at 4° C. On the next day, non-specific binding was blocked with PBS containing 0.5% (w/v) solution of bovine serum albumin (BSA). Fixed concentrations of biotinylated human or cyno IL-33 prepared in assay buffer (25 mM PBS, pH 7.2, 0.1% BSA, 0.05% TWEEN®-20) were mixed with an equal volume of serially-diluted anti-IL-33 antibodies or assay buffer alone and incubated for 1 h at room temperature. The final assay concentrations of biotinylated human IL-33 or cyno IL-33 were 20 pM and 45 pM, respectively, and the final assay concentration of each antibody ranged from 0-300 nM. The pre-mixed solutions were added to the ST2-Fc coated plate and incubated for 1 h at room temperature. The binding of biotinylated IL-33 to coated ST2-Fc was detected by the sequential addition of Streptavidin Poly-HRP80 (Fitzgerald; Buckinghamshire, UK) and 3,3′,5,5′-tetramethyl benzidine (TMB) Microwell Peroxidase Substrate System (KPL; Gaithersburg, Md.). The absorbance (450 nm) was recorded using a […] ASCENT® plate reader (Thermo Scientific; Rockford, Ill.). The binding activity (%) of biotin-IL-33 to ST2 in the presence of anti-IL-33 was plotted as a function of antibody concentration. The data generated were fitted to a four-parameter equation to determine IC₅₀ values for each antibody (FIGS. 25A and 25B) using Prism software (Graphpad Software; La Jolla, Calif.). The maximum blocking (%) of each antibody was calculated as the ratio of the reduction in signal measured in the presence of antibody relative to the difference between the signal with IL-33 alone and background measurements.
For orientation: IC50 means the midpoint of a concentration-inhibition curve. Regarding B2, the IC50 is 120 nM and the “Maximum Blocking” value amounted to 18%.
The matching figures for B3: 70 nM and 40%.
Take B4: the IC50 amounted to 26 nM and the “Maximum Blocking” value came to 61%.
The matching figures for B5: 66 nM and 47%.
The matching figures for B6: 19 nM and 53%.

A further assay deals with T3, cyno IL-33 N-His. Description: SPR Biacore T200, 37 C. The method, then:
(§1) The binding kinetics of the anti-IL-33 antibody 10C12.38.H6.87Y.58I IgG4 and each anti-IL-33 antibody listed in Table 5 (RG1-RG20) to IL-33 were measured using surface plasmon resonance (SPR) on a BIACORE® T200 instrument (GE Healthcare). Anti-human Fc or anti-murine Fc (GE Healthcare, #BR-1008-39 or BR-1008-38, respectively) was immobilized on a CM5 sensor chip via amine-based coupling according to the manufacturer's protocol. Surfaces were used to capture monoclonal human IgG4 and monoclonal murine IgGs for kinetic studies. Antibody binding was measured to human IL-33 (R&D systems, #3625-IL-010/CF) and cyno IL-33 N-His (SEQ ID NO: 317) (Genentech, Inc.). A three-fold concentration series of cytokine with a range of 3.7 to 100 nM was used for the experiments. Sensograms for binding of IL-33 were recorded using an injection time of 4 min with a flow rate of 30 μl/minute with a running buffer of 0.01 M N-(2-Acetamido)iminodiacetic acid (ADA) pH 7.4, 0.15 M NaCl, 3 mM EDTA, and 0.05% TWEEN®-20. After injection, disassociation of the ligand from the antibody was monitored for 10 min in running buffer. The surface was regenerated in between cycles with an injection of 3 M magnesium chloride or Glycine-HCl pH 1.7. All binding experiments were performed at a temperature of 25′C and 37° C. After subtraction of a blank which contained running buffer only, sensograms observed for IL-33 binding to anti-IL-33 antibodies were analyzed using a 1:1 Langmuir binding model with software supplied by the manufacturer to calculate the kinetics and binding constants, including the dissociation constant (KD). Dissociative half-lives (t_{1/2}) were calculated from the kinetic rate constants. KD (M)=koff/kₒₙ and t_{1/2} (min)=ln(2)/(60*koff). […] In Tables 6-9, *IC indicates the result is inconclusive due to weak capture of antibody was observed, leading to poor binding data.
The koff is the rate constant with which the complex falls apart. The kon is the second-order rate constant of association. B2 had a Kd of 7.93 nM, a koff of 0.00305 s⁻¹, a kon of 385000 M⁻¹ s⁻¹ and a t1/2 of 4 min.
The matching figures for B3: 3.66 nM, 0.00326 s⁻¹, 890000 M⁻¹ s⁻¹ and 4 min.
The matching figures for B4: 1.03 nM, 0.00202 s⁻¹, 1.96e+06 M⁻¹ s⁻¹ and 6 min.
The matching figures for B5: 2.31 nM, 0.00112 s⁻¹, 484000 M⁻¹ s⁻¹ and 10 min.
For the molecule B6, the Kd was 1.96 nM, the koff was determined as 0.00142 s⁻¹, the kon was 727000 M⁻¹ s⁻¹ and the t1/2 is 8 min.

In a further assay the target is T4, cynomolgus monkey N-terminal …. Description: cell-based or functional assay.
With B2, the “IC50; SEAP reporter (OD 620), HEK-BLUE IL-33/IL-1beta cells, 5 pM cyno IL-33 (5pM cIL-33-Nhis)” value was found to be 4.8e-08 M.
Same read-out and setting: then B3, with 5e-08 M; and B4, with 2.3e-08 M.
With B5, the “IC50; SEAP reporter (OD 620), HEK-BLUE IL-33/IL-1beta cells, 5 pM cyno IL-33 (5pM cIL-33-Nhis)” value came to 3.4e-08 M.
Still for that read-out and setting: then B6, with 1.1e-08 M.

A further assay concerns the target T5, cyno IL-33 (cell-based blocking assay …). Description: cell-based or functional assay.
Turning to B1, the “Cell assay (cy) IC90” value was > 1.5 µg/mL and > 9.9 nM.

The next assay addresses T6, human IL-33 (cell-based blocking assay …). Description: cell-based or functional assay.
B1: the “Cell assay (hu) IC90” value was 0.0128 µg/mL and 0.84 nM.

A further assay deals with T3, cyno IL-33 N-His. Kind of assay: SPR Biacore T200, 25 C. As to the method:
as §1
On to B2, for which the Kd was determined as 2.69 nM, the off-rate constant (koff) was found to be 0.00064 s⁻¹, the kon came to 238000 M⁻¹ s⁻¹ and the t1/2 amounted to 18 min.
The matching figures for B3: 1.72 nM, 0.000915 s⁻¹, 533000 M⁻¹ s⁻¹ and 13 min.
The matching figures for B4: 1.07 nM, 0.000545 s⁻¹, 511000 M⁻¹ s⁻¹ and 21 min.
The matching figures for B5: 1.28 nM, 0.000313 s⁻¹, 245000 M⁻¹ s⁻¹ and 37 min.
Molecule B6 had a Kd of 0.976 nM, a koff of 0.000426 s⁻¹, a kon of 437000 M⁻¹ s⁻¹ and a t1/2 of 27 min.
